In patent US20240228562A1, “NOVEL LIPOCALIN MUTEINS SPECIFIC FOR CONNECTIVE TISSUE GROWTH FACTOR (CTGF)” (PIERIS PHARMACEUTICALS GMBH, priority 2021, published 2024):

T1: Murine CTGF (Mus musculus, UniProt P29268)
T1 construct: purchased Abbexa
T1 sequence (P29268 26-348): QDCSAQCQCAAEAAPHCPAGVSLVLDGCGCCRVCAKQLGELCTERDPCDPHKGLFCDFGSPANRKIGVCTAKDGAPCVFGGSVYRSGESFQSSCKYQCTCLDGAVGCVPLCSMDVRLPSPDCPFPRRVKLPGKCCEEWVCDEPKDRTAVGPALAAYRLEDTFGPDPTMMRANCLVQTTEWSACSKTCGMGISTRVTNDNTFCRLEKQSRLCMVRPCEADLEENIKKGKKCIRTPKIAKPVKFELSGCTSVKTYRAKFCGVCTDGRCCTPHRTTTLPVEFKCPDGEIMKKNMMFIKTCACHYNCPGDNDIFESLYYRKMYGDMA

T2: Rat CTGF (Rattus norvegicus, UniProt Q9R1E9)
T2 construct: purchased R&D Systems
T2 sequence (Q9R1E9 25-347): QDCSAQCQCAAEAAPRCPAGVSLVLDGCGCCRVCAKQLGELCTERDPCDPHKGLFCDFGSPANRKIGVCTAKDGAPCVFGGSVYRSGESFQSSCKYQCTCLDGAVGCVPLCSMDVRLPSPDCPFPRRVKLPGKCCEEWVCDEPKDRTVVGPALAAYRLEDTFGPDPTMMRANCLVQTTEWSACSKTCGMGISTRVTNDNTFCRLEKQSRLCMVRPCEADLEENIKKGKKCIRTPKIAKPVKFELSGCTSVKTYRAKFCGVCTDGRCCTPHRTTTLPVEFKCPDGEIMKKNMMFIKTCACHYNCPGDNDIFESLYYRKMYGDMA


Assays:
cynomolgus CTGF = test: SPR binding kinetics and affinity, cynomolgus CTGF; conditions: 25° C., 1:1 binding model
Experimental: (§1) Surface plasmon resonance (SPR) was used to measure binding kinetics and affinity of the representative lipocalin muteins disclosed herein.
(§2) The binding of exemplary lipocalin muteins to human (Creative Biomart), cynomolgus, rat (R&D Systems) and mouse CTGF (Abbexa) was determined by SPR using a Biacore instrument (Cytiva, formerly GE Healthcare). Some targets were fused to a human IgG1 Fc tag, and captured via the anti-human IgG antibody kit, others were directly immobilized.
(§3) For some measurements, human CTGF with a human IgG1 Fc Tag or rat or murine CTGF without a tag were directly immobilized to a CM5 Chip. The carboxyl groups on the chip were activated using 1-ethyl-3-(3-dimethylaminopropyl)-carbodiimide (EDC) and N-hydroxysuccinimide (NHS). Subsequently, the targets at a concentration of 3-5 μg/mL in 10 mM sodium acetate (pH) 4.5 were applied at a flow rate of 10 μL/min until an immobilization level of 300-1100 resonance units was achieved. Residual non-reacted NHS-esters were blocked by passing a solution of 1 M ethanolamine across the surface. The reference channel was activated/deactivated. For the capture setting, targets with an IgG Fc Tag at 0.25-2.5 μg/mL in HBS-EP+ buffer were captured by the anti-human IgG-Fc antibody at the chip surface for 180 s at a flow rate of 10 μL/min.
(§4) The binding assay was carried out with a contact time of 180 s, a dissociation time of 900-3600 s and a flow rate of 30 μL/min. All measurements were performed at 25° C. […] For the directly immobilized targets, the same regeneration conditions were used. Prior to the protein measurements, three startup cycles were performed for conditioning purposes. Data were evaluated with Biacore Evaluation software. Double referencing was used and the 1:1 binding model was used to fit the raw data.
(§5) The values determined for kon, koff and the resulting equilibrium dissociation constant (KD) for exemplary lipocalin muteins are summarized in Table 4.

human CTGF [1] = target: T3, human CTGF (Homo sapiens, UniProt P29279); test: SPR binding kinetics and affinity, human CTGF; conditions: 25° C., 1:1 binding model
T3 construct: purchased Creative Biomart
Experimental: as §1, §2, §3, §4

human CTGF [2] = target: T4, human CTGF (Homo sapiens, UniProt P29279, H83D); test: SPR binding kinetics and affinity, human CTGF; conditions: 25° C., 1:1 binding model
T4 construct: purchased Creative Biomart
Experimental: as §1, §2, §3, §4

Murine CTGF = target: T1, Murine CTGF; test: SPR binding kinetics and affinity, murine CTGF; conditions: 25° C., 1:1 binding model
Experimental: as §1, §2, §3, §4, §5

[3] = Thermal stability assessment by nanoDSC; assay type: physicochemical; conditions: 1 mg/mL in PBS, scan 25-100° C. at 1° C./min; for TM: major transition
How it was run: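 CTGF-specific lipocalin muteins at 1 mg/mL in PBS scanned from 25 to 100° C at 1° C/min by capillary nano-DSC. Where several transitions occur, the Tm of the major unfolding event is reported, along with onset temperature. Some muteins were expressed in E. coli, others in CHO cells.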

Rat CTGF = target: T2, Rat CTGF; test: SPR binding kinetics and affinity, rat CTGF; conditions: 25° C., 1:1 binding model
Experimental: as §1, §2, §3, §4, §5

Sequence of cynomolgus CTGF (as listed by the source): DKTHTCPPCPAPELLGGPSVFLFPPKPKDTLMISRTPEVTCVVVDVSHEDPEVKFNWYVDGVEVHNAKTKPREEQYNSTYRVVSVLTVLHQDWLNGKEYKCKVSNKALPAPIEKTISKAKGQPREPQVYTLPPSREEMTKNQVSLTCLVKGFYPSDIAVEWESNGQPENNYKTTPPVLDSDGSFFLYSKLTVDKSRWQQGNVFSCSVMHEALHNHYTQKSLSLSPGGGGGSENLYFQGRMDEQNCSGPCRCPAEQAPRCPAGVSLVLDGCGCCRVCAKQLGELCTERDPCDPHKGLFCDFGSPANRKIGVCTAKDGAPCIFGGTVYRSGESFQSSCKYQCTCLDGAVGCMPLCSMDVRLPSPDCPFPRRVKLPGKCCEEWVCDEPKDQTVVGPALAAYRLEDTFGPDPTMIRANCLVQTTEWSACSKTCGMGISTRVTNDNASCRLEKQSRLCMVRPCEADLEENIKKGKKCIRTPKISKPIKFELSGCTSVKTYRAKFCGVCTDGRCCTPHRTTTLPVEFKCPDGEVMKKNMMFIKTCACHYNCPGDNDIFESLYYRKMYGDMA
T4 sequence (P29279 with tags, fused parts or gaps H83D): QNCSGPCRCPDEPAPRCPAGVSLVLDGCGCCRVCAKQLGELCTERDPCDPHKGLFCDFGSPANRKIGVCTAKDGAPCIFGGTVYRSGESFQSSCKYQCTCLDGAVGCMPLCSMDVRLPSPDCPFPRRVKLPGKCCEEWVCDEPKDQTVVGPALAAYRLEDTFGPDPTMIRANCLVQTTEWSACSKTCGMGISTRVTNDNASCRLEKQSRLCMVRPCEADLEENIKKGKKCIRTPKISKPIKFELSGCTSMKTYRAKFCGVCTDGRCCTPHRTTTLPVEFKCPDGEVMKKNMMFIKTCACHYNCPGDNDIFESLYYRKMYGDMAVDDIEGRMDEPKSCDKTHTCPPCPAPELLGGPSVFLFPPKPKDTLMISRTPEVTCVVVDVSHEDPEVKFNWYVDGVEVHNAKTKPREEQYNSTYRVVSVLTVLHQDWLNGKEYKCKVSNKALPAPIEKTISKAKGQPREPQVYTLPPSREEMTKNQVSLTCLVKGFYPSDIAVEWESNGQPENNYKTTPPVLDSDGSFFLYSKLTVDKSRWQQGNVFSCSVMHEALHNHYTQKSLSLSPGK
T3 sequence (P29279 with tags, fused parts or gaps H83D): as above

| cynomolgus CTGF koff (cynomolgus CTGF) [s⁻¹] | cynomolgus CTGF kon (cynomolgus CTGF) [M⁻¹ s⁻¹] | human CTGF koff (human CTGF [1]) [s⁻¹] | human CTGF kon (human CTGF [2]) [M⁻¹ s⁻¹] | Murine CTGF koff (Murine CTGF) [s⁻¹] | Murine CTGF kon (Murine CTGF) [M⁻¹ s⁻¹] | Rat CTGF koff (Rat CTGF) [s⁻¹] | Rat CTGF kon (Rat CTGF) [M⁻¹ s⁻¹] | Molecule | ONSET MELTING [3] [°C] | TM [3] [°C] |
| --- | --- | --- | --- | --- | --- | --- | --- | --- | --- | --- |
| 7.31e-05 | 162000 | 4.85e-05 | 195000 | 0.000444 | 281000 | 0.000423 | 223000 | SEQ ID NO: 31: optimized CTGF-binding hNGAL lipocalin mutein (protein, lipocalin mutein) QDSTSDLIPAPPLSKVPLQQNFQDNQFQGKWYVVGWAGNVKLREDKQPQKMSATIYELKEDKSYDVTEVVFEQKKCHYIIKTFVPGSQPGEFTAGDIKSPPGYTSSLVRVVSTNYNQHAMVFFKKVSQNREFFWITLYGRTKELTSELKENFIRFSKSLGLPENHIVFPVPIDQCIDG | 59 | 75 |
| 9.77e-05 | 141000 | 6.95e-05 | 165000 | 0.00052 | 310000 | – | – | SEQ ID NO: 36: optimized CTGF-binding hNGAL lipocalin mutein (protein, lipocalin mutein) QDSTSDLIPAPPLSKVPLQQNFQDNQFQGKWYVVGWAGNVKLREDKQPAKMSATIYELKEDKSYDVTEVVFEQKKCHYIIKTFVPGSQPGEFTAGDIKSPPGYTSSLVRVVSTNYNQHAMVFFKKVGQNREFFWITLYGRTKELTSELKENFIRFSKSLGLPENHIVFPVPIDQCIDG | 58 | 73 |
